Results reported in US11453711B2, “Fusion proteins of GLP-1 and GDF15 and conjugates thereof” (BEIJING QL BIOPHARMACEUTICAL CO., LTD., priority 2019, dated 2022).

Tests used:
[1] = Stability study: SEC-HPLC (% HMW, % LMW), RP-UPLC and LC/MS after 2 weeks storage; assay type: physicochemical
Description: To test the stability, the different conjugated fusion proteins were formulated in buffers with different compositions (pH6, 7, 7.4 and 8.0) and stored at 4° C. and 37° C. or 40° C. for 2 weeks. The % High Molecular Weight aggregate (HMW) and % Low Molecular Weight (LMW) were analyzed by size exclusion chromatography (SEC)-HPLC. The concentration and modifications were analyzed by reverse phase (RP)-UPLC and LC/MS.

[2] = Efficacy in DIO mice, daily sc 28 days; assay type: in vivo, DIO male C57BL/6 mice
Description: FIGS. 6A-6E show In vivo efficacy in DIO mice. To evaluate the body weight, food intake and glucose effects of the fusion proteins, 17 week old DIO mice (C57BL/6 mice on high fat diet for 13 weeks) were dosed everyday subcutaneously with different concentrations of proteins for 28 days. […] FIGS. 6D and 6E show body weight change with dose titrations of MLC089 and MLC093 at 3, 10 and 30 nmol/kg. Data are expressed as mean values and standard error (SEM) for FIGS. 6A, 6C, 6D and 6E. n=5 for each treatment group. For FIG. 6B, a pooled food intake was measured for each treatment group.
17 week old DIO male C57BL/6 mice (˜45 g) were injected everyday subcutaneously with designated proteins (i.e., MLC089, MLC093) for 28 days. Food intake and body weight were measured daily and five animals were used for each treatment group. Fasting glucose was also monitored on designated days. Body weight and glucose were monitored for each individual animal, but food intake for each group animals was measured together. Day 1 and Day 28 are first day and last day of molecule dosage. % BW loss=100*(BW on Day n-BW on Day 1)/(BW on Day 1). Cumulative food intake on Day n represents sum of food intake from Day 1 to Day n. Terminal blood was collected and EDTA-2K plasma was prepared and frozen at −80 C for biomarker measurement. Liver was also collected and frozen in liquid nitrogen and store at −80 C. Data are indicated as mean values and standard error (SEM) or pooled values.

[3] = Efficacy in db/db mice: body weight, food intake, glucose, biomarkers, daily sc 14 days; assay type: in vivo
[4] = 30 nmol/kg, FIG. 8A-C, versus Semaglutide, Tirzepatide and MLC014

B1: MLC093: fusion polypeptide SEQ ID NO: 381 conjugated with Moiety B at 33C of Linker (conjugate)
chain: HGEGTFTSDVSSYLEEQAAKEFIAWLVRGGGGAQPGAQPGAQPGAQPGAQPGAQPGAQPGAQPCQEPGAQPGQEPGAQPGQEPGAQPGQEPGAQPGQEPGAQPGQEPGAQPARQGDHCPLGPGRCCRLHTVRASLEDLGWADWVLSPREVQVTMCIGACPSQFRAANLHAQIKTSLHRLKPDTVPAPCCVPASYNPMVLIQKTDTGVSLQTYDDLLAKDCHCI
modifications: Moiety B conjugated at linker Cys33
HMW % ([1]; 4.65 mg/mL at 4° C., Day 0): 0% | LMW % ([1]; 4.65 mg/mL at 4° C., Day 0): 0.43% | Main peak % ([1]; 4.65 mg/mL at 4° C., Day 0): 99.56% | HMW % ([1]; 4.65 mg/mL at 4° C., Day 7): 0% | LMW % ([1]; 4.65 mg/mL at 4° C., Day 7): 0.51% | Main peak % ([1]; 4.65 mg/mL at 4° C., Day 7): 99.46% | HMW % ([1]; 4.65 mg/mL at 4° C., Day 14): 0% | LMW % ([1]; 4.65 mg/mL at 4° C., Day 14): 0.39% | Main peak % ([1]; 4.65 mg/mL at 4° C., Day 14): 99.6% | HMW % ([1]; 4.65 mg/mL at 37° C., Day 0): 0% | LMW % ([1]; 4.65 mg/mL at 37° C., Day 0): 0.43% | Main peak % ([1]; 4.65 mg/mL at 37° C., Day 0): 99.56% | HMW % ([1]; 4.65 mg/mL at 37° C., Day 7): 0.53% | LMW % ([1]; 4.65 mg/mL at 37° C., Day 7): 0.56% | Main peak % ([1]; 4.65 mg/mL at 37° C., Day 7): 98.86% | HMW % ([1]; 4.65 mg/mL at 37° C., Day 14): 0.8% | LMW % ([1]; 4.65 mg/mL at 37° C., Day 14): 0.53% | Main peak % ([1]; 4.65 mg/mL at 37° C., Day 14): 98.6% | HMW % ([1]; 20 mg/mL at 4° C., Day 0): 0% | LMW % ([1]; 20 mg/mL at 4° C., Day 0): 0.38% | Main peak % ([1]; 20 mg/mL at 4° C., Day 0): 99.6% | HMW % ([1]; 20 mg/mL at 4° C., Day 7): 0% | LMW % ([1]; 20 mg/mL at 4° C., Day 7): 0.49% | Main peak % ([1]; 20 mg/mL at 4° C., Day 7): 99.49% | HMW % ([1]; 20 mg/mL at 4° C., Day 14): 0% | LMW % ([1]; 20 mg/mL at 4° C., Day 14): 0.44% | Main peak % ([1]; 20 mg/mL at 4° C., Day 14): 99.24% | HMW % ([1]; 20 mg/mL at 37° C., Day 0): 0% | LMW % ([1]; 20 mg/mL at 37° C., Day 0): 0.38% | Main peak % ([1]; 20 mg/mL at 37° C., Day 0): 99.6% | HMW % ([1]; 20 mg/mL at 37° C., Day 7): 1.03% | LMW % ([1]; 20 mg/mL at 37° C., Day 7): 0.53% | Main peak % ([1]; 20 mg/mL at 37° C., Day 7): 98.38% | HMW % ([1]; 20 mg/mL at 37° C., Day 14): 1.81% | LMW % ([1]; 20 mg/mL at 37° C., Day 14): 0.55% | Main peak % ([1]; 20 mg/mL at 37° C., Day 14): 97.64% | HMW % ([1]; 20 mg/mL at 40° C., Day 0): 0.56% | LMW % ([1]; 20 mg/mL at 40° C., Day 0): 0.54% | Main peak % ([1]; 20 mg/mL at 40° C., Day 0): 98.83% | HMW % ([1]; 20 mg/mL at 40° C., Day 14): 2.26% | LMW % ([1]; 20 mg/mL at 40° C., Day 14): 0.84% | Main peak % ([1]; 20 mg/mL at 40° C., Day 14): 96.76% | physical and chemical stability ([1]; 4° C., 37° C. and 40° C., 2 weeks): high physical and chemical stability | body weight reduction efficacy ([2]; DIO mice, 30 nmol/kg daily 28 days, FIG. 6A): much better body weight reduction efficacy than Semaglutide and GDF15 derivative (MLC014) | dose dependence of body weight reduction ([2]; DIO mice, 3, 10 and 30 nmol/kg, FIGS. 6D and 6E): dose dependent efficacy on body weight reduction | fasting glucose ([2]; DIO mice, FIG. 6C): reached similar level to Semaglutide | efficacy ([2]; DIO study, FIG. 6): better efficacy than Semaglutide and GDF15 derivative (MLC014) | body weight loss [3, 4]: more body weight loss, food intake suppression and glycemic control | food intake suppression [3, 4]: more body weight loss, food intake suppression and glycemic control | glycemic control [3, 4]: more body weight loss, food intake suppression and glycemic control | liver triglyceride content ([3]; Day 15, FIG. 8I): a trend in reducing liver triglyceride content | efficacy ([3]; FIG. 8 study): better efficacy than Semaglutide and GDF15 derivative (MLC014) | plasma triglyceride concentration ([3]; terminal plasma Day 15, FIG. 8G): induced the reduction | plasma ALT concentration ([3]; terminal plasma Day 15, FIG. 8H): induced the reduction
